Reference: US20260242478A1 (published 2026)
Where no end group is shown, it is not given here.

B1: Phage-1273 (peptide)
peptide: YCEGHSSEYMVKCL
modifications: cysteine pairing not given here; also: displayed on phage by fusion to pIII, linker and pIII sequence not given here
notes: Peptide-87 library clone on clonal phage (crude supernatant); not shown: fused to the pIII filament protein of the bacteriophage
B2: Phage-1274 (peptide)
peptide: YCDGHTGVYKWKCI
modifications: cysteine pairing not given here; also: fused to phage pIII protein, pIII and linker sequence not given here
notes: as for B1
B3: Phage-1275 (peptide)
peptide: YCAGHIGEYMDKCL
modifications: cysteine pairing not given here; also: fused to phage pIII protein, pIII and linker sequence not given here
notes: as for B1
B4: Phage-1276 (peptide)
peptide: YCDGHAGIYVLKCL
modifications: cysteine pairing not given here; also: fused to phage pIII protein, pIII and linker sequence not given here
notes: as for B1
B5: Phage-1277 (peptide)
peptide: YCDGHNPVYLAKCL
modifications: cysteine pairing not given here; also: fused to phage pIII protein, pIII and linker sequence not given here
notes: as for B1
B6: Phage-1278 (peptide)
peptide: YCEGHAQQYMLKCL
modifications: cysteine pairing not given here; also: fused to phage pIII protein, pIII and linker sequence not given here
notes: as for B1
B7: Phage-1279 (peptide)
peptide: YCAGHSVQYMYKCL
modifications: cysteine pairing not given here; also: fused to phage pIII protein, pIII and linker sequence not given here
notes: as for B1
B8: Phage-1280 (peptide)
peptide: YCEGHFGMYMSKCL
modifications: cysteine pairing not given here; also: fused to phage pIII protein, pIII and linker sequence not given here
notes: as for B1
B9: Phage-1281 (peptide)
peptide: YCAGHMPQYMSKCL
modifications: cysteine pairing not given here; also: fused to phage pIII protein, pIII and linker sequence not given here
notes: as for B1
B10: Phage-1282 (peptide)
peptide: YCQGHALQYLQKCL
modifications: cysteine pairing not given here; also: fused to phage pIII protein, pIII and linker sequence not given here
notes: as for B1
B11: Phage-1283 (peptide)
peptide: YCAGHLPQYVSKCL
modifications: cysteine pairing not given here; also: fused to phage pIII protein, pIII and linker sequence not given here
notes: as for B1
B12: Phage-1284 (peptide)
peptide: YCEGHLPWYMSKCL
modifications: cysteine pairing not given here; also: fused to phage pIII protein, pIII and linker sequence not given here
notes: as for B1
B13: Phage-1285 (peptide)
peptide: YCDGHHLEYIDKCL
modifications: cysteine pairing not given here; also: fused to phage pIII protein, pIII and linker sequence not given here
notes: as for B1
B14: Phage-1286 (peptide)
peptide: YCDGHLPRFMVKCL
modifications: cysteine pairing not given here; also: fused to phage pIII protein, pIII and linker sequence not given here
notes: as for B1

target: Anti-CD28 Fab (SEQ ID NOs: 696, 697); assay: phage binding ELISA; Fab-coated wells pre-incubated with CD28 antigen as competitor, anti-M13 HRP detection;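 note: crude clonal phage supernatants added without washing after the CD28 pre-incubation, with wells given blocking buffer only (no CD28) as the reference, bound phage read after washing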
Target sequence in this assay (VH, as listed by the source, chain 1 of 2): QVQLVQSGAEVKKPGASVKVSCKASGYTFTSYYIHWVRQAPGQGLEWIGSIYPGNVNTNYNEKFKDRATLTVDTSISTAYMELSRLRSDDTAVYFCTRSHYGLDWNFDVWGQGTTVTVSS
Target sequence in this assay (VL, as listed by the source, chain 2 of 2): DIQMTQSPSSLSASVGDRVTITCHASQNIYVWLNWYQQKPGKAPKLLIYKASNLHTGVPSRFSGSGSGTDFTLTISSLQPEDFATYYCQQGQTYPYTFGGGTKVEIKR
Description: (§1) Clonal phage were harvested as crude supematants and screened via standard ELISAs. […] Prior to the addition of clonal phage, wells were incubated with blocking buffer and CD28 antigen or blocking buffer alone. Without washing or aspirating, clonal phage supematants were then added to the wells and incubated for a short time. Wells were then washed followed by detection of bound phage using a horse radish conjugated anti-M13 antibody. Clonal phage of interest were then sent for sequence analysis.

Binder	Anti-CD28 Fab signal in the presence of CD28
TCSAGATYAWPFCL [Phage-1360 peptide (Peptide-92 library sequence, SEQ ID NO: 1656)]	0.06
MCAAGATYPWPACL (cysteine pairing not given here; also: fused to phage pIII protein) [Phage-1361 peptide (Peptide-92 library sequence, SEQ ID NO: 1657)]	0.06
SCAAGAMWPWPVCV [Phage-1362 peptide (Peptide-92 library sequence, SEQ ID NO: 1658)]	0.13
TCSAGASYPWPLCL [Phage-1363 peptide (Peptide-92 library sequence, SEQ ID NO: 1659)]	0.08
SCKPGVANYWPWCL [Phage-1364 peptide (Peptide-92 library sequence, SEQ ID NO: 1660)]	0.1
MCSAGAMYSWPLCL [Phage-1365 peptide (Peptide-92 library sequence, SEQ ID NO: 1661)]	0.08
LCAAGATYPWPFCL [Phage-1366 peptide (Peptide-92 library sequence, SEQ ID NO: 1662)]	0.07
MCAAGANYPWPQCL (cysteine pairing not given here; also: fused to phage pIII protein) [Phage-1367 peptide (Peptide-92 library sequence, SEQ ID NO: 1663)]	0.08
TCSAGATWSWPMCL [Phage-1368 peptide (Peptide-92 library sequence, SEQ ID NO: 1664)]	0.09
LCSAGAMYPWPTCL [Phage-1369 peptide (Peptide-92 library sequence, SEQ ID NO: 1665)]	0.07

target: T1, Anti-CD28 Fab (SEQ ID NOs: 696, 697); assay: phage ELISA; biotinylated Fab on neutravidin plate, clonal phage supernatant, anti-M13 HRP detection
T1 construct: Used biotinylated and captured on neutravidin coated plates in the phage ELISA
T1 sequence (VH, as listed by the source, chain 1 of 2): as the sequence (VH, as listed by the source, chain 1 of 2) above
T1 sequence (VL, as listed by the source, chain 2 of 2): as the sequence (VL, as listed by the source, chain 2 of 2) above
Description: (§2) After panning, phage infected bacteria were plated out and colonies picked into 96 well blocks. Clonal phage was then amplified and separated from bacterial cells via centrifugation.
as §1

Binder	Phage binding ELISA, Anti-CD28 Fab (SEQ ID NOs: 696, 697) signal
B1	0.77
B2	0.76
B3	0.75
B4	0.75
B5	0.74
B6	0.74
B7	0.74
B8	0.73
B9	0.72
B10	0.71
B11	0.7
B12	0.69
B13	0.69
B14	0.69

target: Anti-CD28 Fab (SEQ ID NOs: 696, 697); assay: phage binding ELISA; biotinylated anti-CD28 Fab on neutravidin plate, clonal phage supernatant, anti-M13 HRP detection;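 note: wells pretreated with blocking buffer, either plus or minus CD28 antigen, then given crude phage supernatant briefly without washing in between, then washed before anti-M13 HRP readout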
Target sequence in this assay (VH, as listed by the source, chain 1 of 2): as the sequence (VH, as listed by the source, chain 1 of 2) above
Target sequence in this assay (VL, as listed by the source, chain 2 of 2): as the sequence (VL, as listed by the source, chain 2 of 2) above
Description: Clonal phage were harvested as crude supematants and screened via standard ELISAs. […] Prior to the addition of clonal phage, wells were incubated with blocking buffer and CD28 antigen or blocking buffer alone. Without washing or aspirating, clonal phage supematants were then added to the wells and incubated for a short time. Wells were then washed followed by detection of bound phage using a horse radish conjugated anti-M13 antibody.

Binder	Anti-CD28 Fab (SEQ ID NOs: 696, 697) signal
TCSAGATYAWPFCL [Phage-1360 peptide (Peptide-92 library sequence, SEQ ID NO: 1656)]	2.31
MCAAGATYPWPACL (cysteine pairing not given here; also: fused to phage pIII protein) [Phage-1361 peptide (Peptide-92 library sequence, SEQ ID NO: 1657)]	2.3
SCAAGAMWPWPVCV [Phage-1362 peptide (Peptide-92 library sequence, SEQ ID NO: 1658)]	2.29
TCSAGASYPWPLCL [Phage-1363 peptide (Peptide-92 library sequence, SEQ ID NO: 1659)]	2.29
SCKPGVANYWPWCL [Phage-1364 peptide (Peptide-92 library sequence, SEQ ID NO: 1660)]	2.29
MCSAGAMYSWPLCL [Phage-1365 peptide (Peptide-92 library sequence, SEQ ID NO: 1661)]	2.29
LCAAGATYPWPFCL [Phage-1366 peptide (Peptide-92 library sequence, SEQ ID NO: 1662)]	2.28
MCAAGANYPWPQCL (cysteine pairing not given here; also: fused to phage pIII protein) [Phage-1367 peptide (Peptide-92 library sequence, SEQ ID NO: 1663)]	2.28
TCSAGATWSWPMCL [Phage-1368 peptide (Peptide-92 library sequence, SEQ ID NO: 1664)]	2.26
LCSAGAMYPWPTCL [Phage-1369 peptide (Peptide-92 library sequence, SEQ ID NO: 1665)]	2.25

target: T1, Anti-CD28 Fab (SEQ ID NOs: 696, 697); assay: phage ELISA; Fab on plate pre-incubated with CD28 antigen as competitor, anti-M13 HRP detection
Description: as §2, §1

Binder	Phage binding ELISA, Anti-CD28 Fab signal in the presence of CD28
B1	0.06
B2	0.06
B3	0.58
B4	0.08
B5	0.08
B6	0.05
B7	0.06
B8	0.07
B9	0.05
B10	0.08
B11	0.06
B12	0.09
B13	0.06
B14	0.07
